Assays:
[1] = molecular target: T1, Human CLEC12A-His (recombinant, K244 WT) (human, UniProt Q5QGZ9 65-265); test: SPR, two-state fit (ka1); after 4 wks 40C in CST pH 7.0
T1 construct: Made in house (Dragonfly Tx); also called hCLEC12A; hCLEC12A-His; not shown: His tag
T1 sequence: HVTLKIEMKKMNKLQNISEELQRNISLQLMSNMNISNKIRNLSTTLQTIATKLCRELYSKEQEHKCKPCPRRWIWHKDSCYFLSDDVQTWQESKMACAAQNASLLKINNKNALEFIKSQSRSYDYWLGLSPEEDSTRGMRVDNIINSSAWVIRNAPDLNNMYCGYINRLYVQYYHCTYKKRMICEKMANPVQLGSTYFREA

[2] = molecular target: T1, Human CLEC12A-His (recombinant, K244 WT); test: SPR, two-state fit (kd1); fully purified protein after low pH hold
[3] = molecular target: T2, Human CLEC12A expressed on cells (Ba/F3-hCLEC12A, PL21, HL60) (human, UniProt Q5QGZ9 1-265); test: cell-based or functional assay
T2 sequence: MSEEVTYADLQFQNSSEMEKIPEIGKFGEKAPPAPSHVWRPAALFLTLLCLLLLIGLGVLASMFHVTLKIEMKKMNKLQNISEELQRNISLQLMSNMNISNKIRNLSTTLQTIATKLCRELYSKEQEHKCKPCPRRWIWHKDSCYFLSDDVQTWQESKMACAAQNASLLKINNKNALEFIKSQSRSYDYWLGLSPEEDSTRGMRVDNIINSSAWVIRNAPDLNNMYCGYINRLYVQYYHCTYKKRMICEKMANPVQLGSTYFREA

[4] = molecular target: T3, De-sialylated human CLEC12A (human, UniProt Q5QGZ9 65-265, treated with neuraminidase (terminal sialic acids removed)); test: SPR, two-state fit (ka1)
T3 construct: Same recombinant antigen as m2 after neuraminidase; also called De-sialylated CLEC12A
T3 sequence: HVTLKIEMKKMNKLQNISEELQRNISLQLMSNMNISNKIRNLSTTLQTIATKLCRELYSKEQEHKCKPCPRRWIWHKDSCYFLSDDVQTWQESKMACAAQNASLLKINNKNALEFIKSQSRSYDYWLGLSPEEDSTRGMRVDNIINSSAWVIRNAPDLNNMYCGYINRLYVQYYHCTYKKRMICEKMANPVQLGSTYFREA

[5] = molecular target: T4, De-glycosylated human CLEC12A (human, UniProt Q5QGZ9 65-265, treated with PNGaseF (N-linked glycans removed)); test: SPR, two-state fit (ka1)
T4 construct: Same recombinant antigen as m2 after PNGaseF; also called De-glycosylated CLEC12A
T4 sequence: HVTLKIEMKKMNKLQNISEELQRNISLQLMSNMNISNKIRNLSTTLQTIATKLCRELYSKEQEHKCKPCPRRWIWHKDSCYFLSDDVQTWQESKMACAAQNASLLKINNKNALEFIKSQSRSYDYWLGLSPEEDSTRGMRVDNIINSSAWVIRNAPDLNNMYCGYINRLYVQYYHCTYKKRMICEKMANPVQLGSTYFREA

[6] = molecular target: T5, mFc-hNKG2D (recombinant mFc-tagged human NKG2D dimer) (human, UniProt P26718 73-216); test: SPR 37C, 1:1 kinetic fit, average
T5 construct: extracellular domain; Made in house; not shown: mouse Fc tag
T5 sequence (looked up): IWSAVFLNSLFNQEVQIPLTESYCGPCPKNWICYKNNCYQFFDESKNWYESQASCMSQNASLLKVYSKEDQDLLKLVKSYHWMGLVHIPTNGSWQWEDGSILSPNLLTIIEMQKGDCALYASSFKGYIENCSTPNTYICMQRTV

[7] = molecular target: T6, Cynomolgus CD16 (FcγRIII) (cynomolgus monkey, UniProt Q8SPW2 17-208, biotinylated); test: SPR, summary of FcγR affinities (n = 3)
T6 construct: Bought recombinant receptor; also called cFcγRIII; Cyno FcγRIII
T6 sequence (Q8SPW2 17-208 limits assumed): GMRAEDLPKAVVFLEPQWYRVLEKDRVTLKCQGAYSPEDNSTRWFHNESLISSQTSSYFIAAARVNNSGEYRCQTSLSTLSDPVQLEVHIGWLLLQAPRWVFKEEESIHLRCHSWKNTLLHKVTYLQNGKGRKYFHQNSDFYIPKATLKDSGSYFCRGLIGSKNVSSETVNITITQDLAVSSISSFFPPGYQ

[8] = molecular target: T7, Cynomolgus CD64 (FcγRI) (cynomolgus monkey, UniProt A0A2K5U901 33-309, Biotinylated and captured on the CAP chip (p-1094); the biotin site is not stated.); test: SPR, summary of FcγR affinities (n = 3)
T7 construct: Bought recombinant receptor; also called cFcγRI; Cynomolgus FcγRI; not shown: The vendor's biotinylation and purification tag (ACRO FCA-C82E8)
T7 sequence (A0A2K5U901 entry or part of it limits assumed): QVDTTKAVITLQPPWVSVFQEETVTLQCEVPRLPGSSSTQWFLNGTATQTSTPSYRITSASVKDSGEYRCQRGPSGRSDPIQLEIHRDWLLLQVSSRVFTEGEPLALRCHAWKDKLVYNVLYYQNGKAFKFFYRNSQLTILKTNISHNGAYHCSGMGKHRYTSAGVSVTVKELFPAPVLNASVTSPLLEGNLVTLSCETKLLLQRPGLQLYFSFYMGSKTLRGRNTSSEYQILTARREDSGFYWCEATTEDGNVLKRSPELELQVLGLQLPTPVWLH

[9] = molecular target: T8, Human CD16b (FcγRIIIb) (human, UniProt O75015 17-200, limits assumed, biotinylated); test: SPR, summary of FcγR affinities (n = 3)
T8 construct: Bought recombinant receptor; also called hFcγRIIIb; CD16b (FcγR3b)
T8 sequence (O75015 17-200 limits assumed): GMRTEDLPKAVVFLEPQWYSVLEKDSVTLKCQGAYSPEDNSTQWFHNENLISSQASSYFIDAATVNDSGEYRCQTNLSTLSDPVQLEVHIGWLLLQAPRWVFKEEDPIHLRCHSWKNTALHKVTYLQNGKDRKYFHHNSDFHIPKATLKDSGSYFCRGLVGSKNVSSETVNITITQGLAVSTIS

kon [1]: 6.31e+06 M⁻¹ s⁻¹ | koff [2]: 0.0276 s⁻¹ | EC50, NK cell induction of IFNγ and CD107a in co-culture with PL21 cells (mean of three donors) [3]: 0.08 nM | kon [4]: 2.09e+07 M⁻¹ s⁻¹ | kon [5]: 8.96e+06 M⁻¹ s⁻¹ | Kd [6]: 881 nM | koff [6]: 0.143 s⁻¹ | kon [6]: 162000 M⁻¹ s⁻¹ | Kd [7]: 349 nM | Kd [8]: 1.5 nM | Kd [9]: 8850 nM
B1: AB0089 TriNKET (bispecific antibody, human IgG1, kappa)
chain: QLQLQESGPGLVKPSETLSLTCTVSGFSLTNYGLHWIRQPPGKCLEWIGVIWVGGATDYNPSLKSRVTISVDTSKNQFSLKLSSVQAADTAVYYCAKGDYGDTLDYWGQGTLVTVSSGGGGSGGGGSGGGGSGGGGSDIQMTQSPSSLSASVGDRVTITCHASQNINFWLSWYQQKPGKAPKLLIYEASNLHTGVPSRFSGSGSGTDFTLTISSLQPEDFATYYCQQSHSYPLTFGCGTKLEIKGSDKTHTCPPCPAPELLGGPSVFLFPPKPKDTLMISRTPEVTCVVVDVSHEDPEVKFNWYVDGVEVHNAKTKPREEQYNSTYRVVSVLTVLHQDWLNGKEYKCKVSNKALPAPIEKTISKAKGQPREPRVYTLPPCRDELTKNQVSLTCLVKGFYPSDIAVEWESNGQPENNYKTTPPVLVSDGSFTLYSKLTVDKSRWQQGNVFSCSVMHEALHNHYTQKSLSLSPG
heavy: EVQLVESGGGLVKPGGSLRLSCAASGFTFSSYSMNWVRQAPGKGLEWVSSISSSSSYIYYADSVKGRFTISRDNAKNSLYLQMNSLRAEDTAVYYCARGAPIGAAAGWFDPWGQGTLVTVSSASTKGPSVFPLAPSSKSTSGGTAALGCLVKDYFPEPVTVSWNSGALTSGVHTFPAVLQSSGLYSLSSVVTVPSSSLGTQTYICNVNHKPSNTKVDKKVEPKSCDKTHTCPPCPAPELLGGPSVFLFPPKPKDTLMISRTPEVTCVVVDVSHEDPEVKFNWYVDGVEVHNAKTKPREEQYNSTYRVVSVLTVLHQDWLNGKEYKCKVSNKALPAPIEKTISKAKGQPREPQVCTLPPSRDELTENQVSLTCLVKGFYPSDIAVEWESNGQPENNYKTTPPVLDSDGSFFLYSWLTVDKSRWQQGNVFSCSVMHEALHNHYTQKSLSLSPG
light: DIQMTQSPSSVSASVGDRVTITCRASQGISSWLAWYQQKPGKAPKLLIYAASSLQSGVPSRFSGSGSGTDFTLTISSLQPEDFATYYCQQGVSFPRTFGGGTKVEIKRTVAAPSVFIFPPSDEQLKSGTASVVCLLNNFYPREAKVQWKVDNALQSGNSQESVTEQDSKDSTYSLSSTLTLSKADYEKHKVYACEVTHQGLSSPVTKSFNRGEC
notes: F3' format heterodimer of three chains; human IgG1 Fc with EW-RVT and Y349C/S354C mutations; also called AB0089 Lot AB0089-002; CLEC12A TriNKET AB0089
